“And” between values parts separate entries of the source, which are not always exact repeats. Identical values can stand only once.
How the values were obtained:
Test in all cases: SEC-MALS
[1] = molecular target: Hsf1 CS mutant (C35S/C103S/C153S/C373S/C378S) (human) (UniProt Q00613)
[2] = molecular target: T1, Heat shock factor 1 (Hsf1) (human), Q00613; conditions: remark: other sources report otherwise
T1 chain: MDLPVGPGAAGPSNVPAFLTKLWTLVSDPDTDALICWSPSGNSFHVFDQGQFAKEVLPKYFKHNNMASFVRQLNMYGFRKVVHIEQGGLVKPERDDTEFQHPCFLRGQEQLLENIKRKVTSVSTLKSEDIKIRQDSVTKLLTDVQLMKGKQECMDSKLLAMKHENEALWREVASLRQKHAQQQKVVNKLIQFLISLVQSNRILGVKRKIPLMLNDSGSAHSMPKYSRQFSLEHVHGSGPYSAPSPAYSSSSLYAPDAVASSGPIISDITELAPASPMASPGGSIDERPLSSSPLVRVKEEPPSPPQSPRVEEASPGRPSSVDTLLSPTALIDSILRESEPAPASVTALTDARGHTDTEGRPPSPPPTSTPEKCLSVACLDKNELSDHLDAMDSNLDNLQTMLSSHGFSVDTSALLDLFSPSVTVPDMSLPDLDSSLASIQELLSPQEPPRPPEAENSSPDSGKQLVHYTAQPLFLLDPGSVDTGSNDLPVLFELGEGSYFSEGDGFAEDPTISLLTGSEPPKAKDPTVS

[3] = molecular target: T1, Heat shock factor 1 (Hsf1) (human), …; conditions: remark: other sources report otherwise

Hsf1 CS mutant (C35S/C103S/C153S/C373S/C378S) (from UniProt Q00613 1-529) (natural protein)
stoichiometry N [1]: 5

B1: Heat shock factor 1 (Hsf1), Q00613 1-529 (natural protein)
chain: MDLPVGPGAAGPSNVPAFLTKLWTLVSDPDTDALICWSPSGNSFHVFDQGQFAKEVLPKYFKHNNMASFVRQLNMYGFRKVVHIEQGGLVKPERDDTEFQHPCFLRGQEQLLENIKRKVTSVSTLKSEDIKIRQDSVTKLLTDVQLMKGKQECMDSKLLAMKHENEALWREVASLRQKHAQQQKVVNKLIQFLISLVQSNRILGVKRKIPLMLNDSGSAHSMPKYSRQFSLEHVHGSGPYSAPSPAYSSSSLYAPDAVASSGPIISDITELAPASPMASPGGSIDERPLSSSPLVRVKEEPPSPPQSPRVEEASPGRPSSVDTLLSPTALIDSILRESEPAPASVTALTDARGHTDTEGRPPSPPPTSTPEKCLSVACLDKNELSDHLDAMDSNLDNLQTMLSSHGFSVDTSALLDLFSPSVTVPDMSLPDLDSSLASIQELLSPQEPPRPPEAENSSPDSGKQLVHYTAQPLFLLDPGSVDTGSNDLPVLFELGEGSYFSEGDGFAEDPTISLLTGSEPPKAKDPTVS
stoichiometry N [2]: 7 | stoichiometry N [3]: 9 and < 16

From article doi:10.1101/2021.12.02.471034
